pKd: −log10 of the molar value.
How the values were obtained:
[1] = target: shFcγRIIIa-H6 (soluble human FcγRIIIa with hexahistidine tag, Example 3) (human) (UniProt P08637); assay: SPR (Biacore1000), receptor coupled to CM5 chip, IgG in flow, steady state
[2] = target: shFcγRIIIa-Q162-H6 (soluble human FcγRIIIa lacking glycosylation at position 162, hexahistidine tag, Example 3) (human) (UniProt P08637); assay: as above

Row | Substance | pKd [1] | pKd [2]
1 | control antibody (humanized IgG1), non-GE glycoform | 6.61 | 6.67
2 | IgG mutant 43 S239D, non-GE glycoform (antibody) | 7.07 | 6.91
3 | IgG mutant 30 H268E, non-GE glycoform (antibody) | 6.72 | 6.82
4 | IgG mutant 85 F243H, non-GE glycoform (antibody) | 6.27 | 6.42
5 | IgG mutant 20 S239W, non-GE glycoform (antibody) | 6.16 | 6.43
6 | IgG mutant 98 S239E, non-GE glycoform (antibody) | 6.81 | 6.77
7 | IgG mutant 22 F243E, non-GE glycoform (antibody) | 6.05 | 6.37
8 | IgG mutant 88 T260H, non-GE glycoform (antibody) | 6.56 | 6.54
9 | IgG mutant 9 H268D, non-GE glycoform (antibody) | 6.91 | 7.06

Reference: patent publication US20070111281A1
